Laboratory results reported in patent US20250223359A1.
Substitutions are numbered along the chain they refer to.

B1: CD3hi anti-CD3 antibody (antibody, V domains shown)
VH: EVQLVESGGGLVQPGGSLKLSCAASGFTFNTYAMNWVRQASGKGLEWVGRIRSKYNNYATYYADSVKDRFTISRDDSKSTLYLQMNSLKTEDTAVYYCVRHGNFGNSYVSWFAYWGQGTLVTVSS
VL: QAVVTQEPSLTVSPGGTVTLTCRSSTGAVTTSNYANWVQQKPGQAPRGLIGGTNKRAPWTPARFSGSLLGDKAALTLSGAQPEDEAEYFCALWYSNLWVFGGGTKLTVL
B2: CD3med anti-CD3 antibody (antibody, V domains shown)
VH: B1 VH with S79N, L81A, Y114H
VL: B1 VL with R23G, T31S, D71G, F89Y
B3: CD3lo anti-CD3 antibody (antibody, V domains shown)
VH: B1 VH with L81A
VL: B1 VL

The binders below were run against CD3-Fc (assay: SPR (Biacore T200, 25 C); CD3-Fc captured on anti-hFc IgG1 CM5 chip, antibody injected in 1:2 dilution series; 1:1 binding model).

Row | Binder | Kd [nM]
1 | B1 | 16
2 | B2 | 30
3 | B3 | 48
